Patent US20260176254A1, “INHIBITORS OF PROSTATE SPECIFIC MEMBRANE ANTIGEN AND USE THEREOF” (SHANGHAI SINOTAU BIOTECH. CO., LTD, priority 2023, published 2026)

Key:
[1] = Tissue biodistribution in 22Rv1 tumor mouse model; design: species or system mice; details: male, nude, in vivo, iv, total radioactivity
From the text: (§1) LnCAP and 22RV1 CDX xenograft tumor models were generated by inoculating 5×10^6 cells/site subcutaneously in male SCID or nude mice (Vital River), respectively. Animals were housed according to IACUC guidance and had accessed to food and water ad libitium. Animals were used for biodistribution study when the tumor dimensions reached around 0.2-0.3 cm^3. […] At each tome point, animals were sacrificed and tissues were collected, weighted, and subjected to radioactivity measurements using gamma counter. Radioactivity in the tissues was presented in % ID/g (percent of injected dose per gram).

[2] = tested on: 22RV1 CDX xenograft tumor; test: Tissue biodistribution in 22Rv1 tumor mouse model; design: species or system mice; details: male, nude, in vivo, iv
From the text: as §1

[3] = Tissue biodistribution: Salivary Gland

O=C(O)CN1CCN(CC(=O)O)CCN(CC(=O)NC23CCC(Nc4c(N[C@@H](Cc5c6ccccc6cc6ccccc56)C(=O)NCCCC[C@H](NC(=O)N[C@@H](CNC(=O)C(=O)O)C(=O)O)C(=O)O)c(=O)c4=O)(CC2)CC3)CCN(CC(=O)O)CC1 [[^177Lu]Lu-E8, metal not drawn]
tissue uptake dose at 2 h [1]: 8.22 ± 0.38 %ID
tissue uptake dose at 6 h [1]: 5.13 ± 0.24 %ID
tissue uptake dose at 24 h [1]: 2.13 ± 0.07 %ID
tissue uptake dose at 72 h [1]: 0.81 ± 0.01 %ID
tissue uptake dose at 168 h [1]: 1.34 ± 0.01 %ID
tissue to tissue ratio ([1]; T/NT ratio Tumor/Blood): 570
tissue to tissue ratio ([1]; T/NT ratio Tumor/Salivary Gland): 201
tissue uptake at 2 h ([1]; Tissue biodistribution: Blood): 0.4 ± 0.14 %ID/g
tissue uptake at 6 h ([1]; Tissue biodistribution: Blood): 0.08 ± 0.04 %ID/g
tissue uptake at 24 h ([1]; Tissue biodistribution: Blood): 0.03 %ID/g
tissue uptake at 72 h ([1]; Tissue biodistribution: Blood): 0.02 %ID/g
tissue uptake at 168 h ([1]; Tissue biodistribution: Blood): 0.02 ± 0.01 %ID/g
tissue uptake at 2 h ([1]; Tissue biodistribution: Bone): 0.47 ± 0.09 %ID/g
tissue uptake at 6 h ([1]; Tissue biodistribution: Bone): 0.26 ± 0.03 %ID/g
tissue uptake at 24 h ([1]; Tissue biodistribution: Bone): 0.26 ± 0.04 %ID/g
tissue uptake at 72 h ([1]; Tissue biodistribution: Bone): 0.34 ± 0.01 %ID/g
tissue uptake at 168 h ([1]; Tissue biodistribution: Bone): 0.43 ± 0.1 %ID/g
tissue uptake at 2 h ([1]; Tissue biodistribution: Heart): 0.57 ± 0.28 %ID/g
tissue uptake at 6 h ([1]; Tissue biodistribution: Heart): 0.1 ± 0.01 %ID/g
tissue uptake at 24 h ([1]; Tissue biodistribution: Heart): 0.07 %ID/g
tissue uptake at 72 h ([1]; Tissue biodistribution: Heart): 0.07 ± 0.01 %ID/g
tissue uptake at 168 h ([1]; Tissue biodistribution: Heart): 0.08 ± 0.01 %ID/g
tissue uptake at 2 h ([1]; Tissue biodistribution: Kidney): 136 ± 16.7 %ID/g
tissue uptake at 6 h ([1]; Tissue biodistribution: Kidney): 56.5 ± 18.9 %ID/g
tissue uptake at 24 h ([1]; Tissue biodistribution: Kidney): 5.86 ± 1.87 %ID/g
tissue uptake at 72 h ([1]; Tissue biodistribution: Kidney): 0.99 ± 0.04 %ID/g
tissue uptake at 168 h ([1]; Tissue biodistribution: Kidney): 0.26 ± 0.01 %ID/g
tissue uptake at 2 h ([1]; Tissue biodistribution: Liver): 0.34 ± 0.07 %ID/g
tissue uptake at 6 h ([1]; Tissue biodistribution: Liver): 0.19 ± 0.03 %ID/g
tissue uptake at 24 h ([1]; Tissue biodistribution: Liver): 0.18 ± 0.05 %ID/g
tissue uptake at 72 h ([1]; Tissue biodistribution: Liver): 0.22 ± 0.01 %ID/g
tissue uptake at 168 h ([1]; Tissue biodistribution: Liver): 0.23 ± 0.08 %ID/g
tissue uptake at 2 h ([1]; Tissue biodistribution: Lung): 1.14 ± 0.31 %ID/g
tissue uptake at 6 h ([1]; Tissue biodistribution: Lung): 0.32 ± 0.11 %ID/g
tissue uptake at 24 h ([1]; Tissue biodistribution: Lung): 0.12 ± 0.02 %ID/g
tissue uptake at 72 h ([1]; Tissue biodistribution: Lung): 0.09 ± 0.01 %ID/g
tissue uptake at 168 h ([1]; Tissue biodistribution: Lung): 0.07 ± 0.02 %ID/g
tissue uptake at 2 h ([1]; Tissue biodistribution: Muscle): 0.23 ± 0.03 %ID/g
tissue uptake at 6 h ([1]; Tissue biodistribution: Muscle): 0.08 ± 0.01 %ID/g
tissue uptake at 24 h ([1]; Tissue biodistribution: Muscle): 0.03 %ID/g
tissue uptake at 72 h ([1]; Tissue biodistribution: Muscle): 0.02 %ID/g
tissue uptake at 168 h ([1]; Tissue biodistribution: Muscle): 0.03 ± 0.01 %ID/g
tissue uptake at 2 h [1, 3]: 0.57 ± 0.19 %ID/g
tissue uptake at 6 h [1, 3]: 0.2 ± 0.07 %ID/g
tissue uptake at 24 h [1, 3]: 0.08 %ID/g
tissue uptake at 72 h [1, 3]: 0.09 ± 0.01 %ID/g
tissue uptake at 168 h [1, 3]: 0.06 ± 0.01 %ID/g
tissue uptake at 2 h ([1]; Tissue biodistribution: Spleen): 6.44 ± 3.19 %ID/g
tissue uptake at 6 h ([1]; Tissue biodistribution: Spleen): 0.88 ± 0.26 %ID/g
tissue uptake at 24 h ([1]; Tissue biodistribution: Spleen): 0.28 ± 0.05 %ID/g
tissue uptake at 72 h ([1]; Tissue biodistribution: Spleen): 0.35 ± 0.01 %ID/g
tissue uptake at 168 h ([1]; Tissue biodistribution: Spleen): 0.39 ± 0.11 %ID/g
tissue uptake at 2 h ([1]; Tissue biodistribution: Tumor): 19.7 ± 9.31 %ID/g
tissue uptake at 6 h ([1]; Tissue biodistribution: Tumor): 18.8 ± 1.68 %ID/g
tissue uptake at 24 h ([1]; Tissue biodistribution: Tumor): 22.7 ± 7.83 %ID/g
tissue uptake at 72 h ([1]; Tissue biodistribution: Tumor): 24.3 ± 1.92 %ID/g
tissue uptake at 168 h ([1]; Tissue biodistribution: Tumor): 11.9 ± 4.35 %ID/g
tissue to tissue ratio at 2 h ([1]; Tumor/Blood): 62.7 ± 54.4
tissue to tissue ratio at 6 h ([1]; Tumor/Blood): 277 ± 98.9
tissue to tissue ratio at 24 h ([1]; Tumor/Blood): 754 ± 166
tissue to tissue ratio at 72 h ([1]; Tumor/Blood): 1120 ± 40
tissue to tissue ratio at 168 h ([1]; Tumor/Blood): 555 ± 353
tissue to tissue ratio at 2 h ([1]; Tumor/Bone): 41.5 ± 19.5
tissue to tissue ratio at 6 h ([1]; Tumor/Bone): 73.6 ± 6.68
tissue to tissue ratio at 24 h ([1]; Tumor/Bone): 87.2 ± 16.1
tissue to tissue ratio at 72 h ([1]; Tumor/Bone): 72.1 ± 4.85
tissue to tissue ratio at 168 h ([1]; Tumor/Bone): 27.7 ± 7.2
tissue to tissue ratio at 2 h ([1]; Tumor/Kidney): 0.15 ± 0.09
tissue to tissue ratio at 6 h ([1]; Tumor/Kidney): 0.35 ± 0.11
tissue to tissue ratio at 24 h ([1]; Tumor/Kidney): 3.97 ± 0.93
tissue to tissue ratio at 72 h ([1]; Tumor/Kidney): 24.5 ± 2.46
tissue to tissue ratio at 168 h ([1]; Tumor/Kidney): 45.6 ± 16.3
T/NT ratio Tumor/Blood [2]: 497.77
T/NT ratio Tumor/Salivary Gland [2]: 183.55
